Numbering of substitutions follows the chain as printed. One block for each molecule: values may come before it.
What was measured:
[1] = test system: T1, V5 epitope-tagged NT domain of Girdin (NT-V5)
T1 sequence: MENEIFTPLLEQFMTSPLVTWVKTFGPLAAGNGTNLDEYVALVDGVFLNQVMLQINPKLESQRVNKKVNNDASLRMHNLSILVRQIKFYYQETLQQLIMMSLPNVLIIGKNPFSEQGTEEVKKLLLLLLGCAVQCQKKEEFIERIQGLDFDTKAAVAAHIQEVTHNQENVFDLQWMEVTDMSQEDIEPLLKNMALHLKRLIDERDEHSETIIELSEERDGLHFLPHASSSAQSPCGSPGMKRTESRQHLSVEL

[2] = test system: T2, GST-CT (GST-fused CT domain of Girdin)
T2 sequence: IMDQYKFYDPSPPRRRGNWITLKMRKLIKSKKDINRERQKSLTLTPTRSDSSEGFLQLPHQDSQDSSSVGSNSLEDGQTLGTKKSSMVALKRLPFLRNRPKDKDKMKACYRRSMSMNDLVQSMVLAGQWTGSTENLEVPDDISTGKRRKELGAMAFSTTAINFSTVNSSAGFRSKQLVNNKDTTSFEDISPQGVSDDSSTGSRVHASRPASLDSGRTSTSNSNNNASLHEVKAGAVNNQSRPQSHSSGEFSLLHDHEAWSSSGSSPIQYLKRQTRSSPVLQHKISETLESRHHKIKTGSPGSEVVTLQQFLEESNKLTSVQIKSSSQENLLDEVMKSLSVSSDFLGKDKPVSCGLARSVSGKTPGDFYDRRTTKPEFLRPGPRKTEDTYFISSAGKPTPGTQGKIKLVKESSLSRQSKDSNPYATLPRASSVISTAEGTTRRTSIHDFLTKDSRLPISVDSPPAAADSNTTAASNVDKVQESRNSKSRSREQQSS

[3] = test system: T3, Girdin CT-V5 wild type (WT)
T3 sequence: T2 sequence

[4] = test system: T4, Girdin CT-V5 SA mutant (serine 1416 replaced with alanine)
T4 sequence: T2 sequence with S41A

[5] = test system: T5, coiled-coil domain of Girdin tagged with V5
T5 sequence: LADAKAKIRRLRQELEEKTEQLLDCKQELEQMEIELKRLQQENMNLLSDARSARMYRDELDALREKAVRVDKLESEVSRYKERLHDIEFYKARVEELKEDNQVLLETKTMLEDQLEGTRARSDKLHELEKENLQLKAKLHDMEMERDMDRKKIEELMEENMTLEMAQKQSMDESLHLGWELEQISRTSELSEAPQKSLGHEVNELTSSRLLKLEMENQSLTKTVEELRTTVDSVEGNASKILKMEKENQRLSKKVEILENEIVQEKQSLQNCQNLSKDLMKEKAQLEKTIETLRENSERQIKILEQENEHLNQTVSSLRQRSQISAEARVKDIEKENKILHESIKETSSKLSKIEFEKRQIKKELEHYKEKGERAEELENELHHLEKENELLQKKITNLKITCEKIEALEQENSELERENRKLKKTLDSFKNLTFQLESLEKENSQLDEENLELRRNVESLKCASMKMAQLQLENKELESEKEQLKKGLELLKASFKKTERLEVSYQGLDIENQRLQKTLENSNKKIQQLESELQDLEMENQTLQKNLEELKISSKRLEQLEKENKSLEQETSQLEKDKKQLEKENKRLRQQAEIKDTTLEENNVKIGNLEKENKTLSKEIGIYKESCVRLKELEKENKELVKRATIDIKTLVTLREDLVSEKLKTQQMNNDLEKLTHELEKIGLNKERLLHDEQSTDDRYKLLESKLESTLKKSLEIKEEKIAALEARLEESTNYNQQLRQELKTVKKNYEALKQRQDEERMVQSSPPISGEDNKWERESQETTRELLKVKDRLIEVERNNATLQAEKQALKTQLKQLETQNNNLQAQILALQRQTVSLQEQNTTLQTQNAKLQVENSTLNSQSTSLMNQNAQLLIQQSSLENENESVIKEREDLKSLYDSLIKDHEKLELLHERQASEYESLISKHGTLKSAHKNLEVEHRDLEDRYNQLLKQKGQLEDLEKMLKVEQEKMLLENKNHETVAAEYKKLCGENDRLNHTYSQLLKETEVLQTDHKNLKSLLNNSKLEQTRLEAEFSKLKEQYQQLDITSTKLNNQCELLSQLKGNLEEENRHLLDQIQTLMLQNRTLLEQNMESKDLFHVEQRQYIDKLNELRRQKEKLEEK

[6] = biological target: F-actin (filamentous actin); assay: actin cosedimentation, 1 µM GST-CT2 with 0-2.5 µM F-actin, Scatchard analysis
[7] = biological target: the molecule itself; assay: expression in COS7 cells, coimmunoprecipitation (data not shown)

Molecule: recombinant active Akt (Upstate)
- in vitro kinase assay (phosphorylation, autoradiography) [1]: neither the NT nor the coiled-coil domain of Girdin was phosphorylated by Akt in vitro
- in vitro kinase assay (phosphorylation detected by anti-P-Girdin antibody) [2]: Purified GST-CT was effectively phosphorylated by Akt in vitro
- in vitro kinase assay (phosphorylation, autoradiography) [3]: Girdin CT wild type (WT) ... was phosphorylated by active Akt
- in vitro kinase assay (phosphorylation, autoradiography) [4]: but not its Ser-1416 substituted with Ala mutant (SA), was phosphorylated by active Akt
- in vitro kinase assay (phosphorylation, autoradiography) [5]: neither the NT nor the coiled-coil domain of Girdin was phosphorylated by Akt in vitro

- Kd [6]: 1.03 µM
Molecule: glutathione S-transferase (GST)-fused CT2 of Girdin (GST-CT2) (from UniProt Q3V6T2 1624-1871)

B1: CT domain of Girdin (expressed in cells, oligomerisation test) (other)
chain: T2 sequence
- binding result [7]: no binding
